According to patent US20200332015A1 (NAMAB THERAPEUTICS, published 2020):

T1: mouse Fc-tagged mouse CD137 (R&D Systems, cat. 937-4B-050) (mouse, UniProt P20334 24-187)
T1 construct: also called mouse CD137-Fc chimeric protein
T1 sequence (looked up): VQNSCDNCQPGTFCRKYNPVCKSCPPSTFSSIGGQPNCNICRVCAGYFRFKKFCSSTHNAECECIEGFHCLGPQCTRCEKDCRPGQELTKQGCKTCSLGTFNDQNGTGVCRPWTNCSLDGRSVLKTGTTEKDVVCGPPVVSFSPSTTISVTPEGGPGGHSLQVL

B1: PRO1123 (38-02-A04 sc05 IF scDb-i/33_03_G02 sc01 scDb-o) (bispecific antibody)
chain: DIQMTQSPSSLSASVGDRVTITCQASQSINDYLAWYQQKPGKAPKLLIYKASTLASGVPSRFSGSGSGTDFTLTISSLQPEDFATYYCQQGYIITDIDNVFGTGTKVTVLGGGGGSQVQLQESGPGLVKPSETLSLTCKVSGFSFSNSYWICWVRQPPGKGLEWIGCTFVGSSDSTYYANWAKGRVTISVDSSKNQVSLKLSSVTAADTAVYFCARHPSDAVYGYANNLWGQGTLVTVSSGGGGSGGGGSGGGGSGGGGSIQMTQSPSSLSASVGDRVTITCQASQSINNVLAWYQQKPGKPPKLLIYRASTLASGVPSRFSGSGSGTDFTLTISSLQPEDFATYYCQSSYGNYGDFGTGTKVTVLGGGGGSQVQLQESGPGLVKPSETLSLTCKVSGFSFSSGYDMCWIRQPPGKGLEWIGCVVAGSVDITYYASWAKGRVTISVDSSKNQFSLKLSSVTAADTAVYYCARKDAYSDAFNLWGQGTLVTVSS
notes: scDb; also called PR01123
B2: PRO1126 (38-02-A04 sc01 scDb-i/33_03_G02 sc03 Full scDb-o) (bispecific antibody)
chain: DFQLTQSPSSLSASVGDRVTITCQASQSINDYLAWYQQKPGKSPKLLIYKASTLASGVPSRFSGSGSGTDFTLTISSLQPEDFATYYCQQGYIITDIDNVFGTGTKVTVLGGGGGSQVQLQESGPGLVKPSETLSLTCKVSGFSFSNSYWICWIRQPPGKGLEWIGCTFVGSSDSTYYANWAKGRVTISVDSSKNQFSLKLSSVTAADTAVYYCARHPSDAVYGYANNLWGQGTLVTVSSGGGGSGGGGSGGGGSGGGGSIQMTQSPSSLSASVGDRVTITCQASQSINNVLAWYQQKPGKAPKLLIYRASTLASGVPSRFSGSGSGTDFTLTISSLQPEDFATYYCQSSYGNYGDFGTGTKVTVLGGGGGSQSQLQESGPGLVKPSETLSLTCKASGFSFSSGYDMCWVRQPPGKGLEWIACVVAGSVDITYYASWAKGRVTISKDSSKNQVSLKLSSVTAADTAVYFCARKDAYSDAFNLWGQGTLVTVSS
notes: scDb; also called PR01126

Columns and labels:
[1] = target: T2, human CD137 expressed on Jurkat cells (human, UniProt Q07011 24-255); test: cell-based or functional assay
[2] = target: T2, human CD137 expressed on Jurkat cells; test: cell-based or functional assay; remark: listed apart in the source
[3] = target: T2, human CD137 expressed on Jurkat cells; test: cell-based or functional assay; remark: listed apart in the source
[4] = target: T2, human CD137 expressed on Jurkat cells; test: cell-based or functional assay; remark: listed apart in the source
[5] = target: human PDL1-Fc chimeric protein (human, UniProt Q9NZQ7 19-238, limits assumed); test: SPR T200, antigen-Fc captured, molecule as analyte
Description: (§1) Affinity to PDL1 of the different species was determined by SPR measurements using a Biacore T200 device (GE Healthcare). An antibody specific for the Fc region of human IgGs was immobilized on a sensor chip (CM5 sensor chip, GE Healthcare) by amine-coupling. For all formats, with the exception of the Fc containing Morrison formats, PDL1-Fc chimeric protein from different species were captured by the immobilized antibody. Three-fold serial dilutions of the molecules specific for PDL1 (0.12-90 nM) were injected into the flow cells for three minutes and dissociation was monitored for 10 minutes. After each injection cycle, surfaces were regenerated with one injection of a 3 M MgCl₂ solution. The apparent dissociation (kd) and association (kₐ) rate constants and the apparent dissociation equilibrium constant (KD) were calculated using one-to-one Langmuir binding model. Affinity to CD137 of the different species was determined using the identical setup as for PDL1 with the exception that CD137-Fc chimeric proteins from different species were captured by the immobilized antibody.

[6] = target: T3, Fc tagged human CD137 (R&D Systems, cat. 838-4B-100) (human, UniProt Q07011 24-186); test: SPR T200, antigen-Fc captured, molecule as analyte
T3 construct: also called CD137 Fc chimera; human CD137-Fc chimeric protein
Description: as §1

[7] = target: T4, cynomolgus monkey Fc-tagged CD137 (R&D Systems, cat. 9324-4B-100) (cynomolgus monkey, UniProt A9YYE7 24-186); test: SPR T200, antigen-Fc captured, molecule as analyte
T4 construct: also called cynomolgus CD137-Fc chimeric protein
Description: as §1

[8] = target: T1, mouse Fc-tagged mouse CD137 (R&D …); test: SPR T200, antigen-Fc captured, molecule as analyte
Description: as §1

T4 sequence (A9YYE7 entry or part of it): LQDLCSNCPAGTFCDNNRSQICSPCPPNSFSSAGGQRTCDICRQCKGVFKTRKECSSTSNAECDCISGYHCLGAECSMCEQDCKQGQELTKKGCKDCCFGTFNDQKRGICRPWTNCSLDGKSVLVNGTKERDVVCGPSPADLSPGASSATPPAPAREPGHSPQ

Row | Binder | EC50 NFkB-luciferase, CHO-PDL1 cells [1] | Top of curve fit, NFkB-luciferase, CHO-PDL1 cells [1] | EC50 NFkB-luciferase, HCC827 without IFNy [2] | Top of curve fit, NFkB-luciferase, HCC827 without IFNy [2] | EC50 NFkB-luciferase, HCC827 with IFNy [3] | Top of curve fit, NFkB-luciferase, HCC827 with IFNy [3] | max. activation, HCC827 +IFNg [4] | max. activation, HCC827 -IFNg [4] | max. activation, NF-kB reporter gene, CHO-PD-L1 [4] | rel. IC50 (urelumab/test), HCC827 +IFNg [4] | rel. IC50 (urelumab/test), HCC827 -IFNg [4] | rel. IC50 (urelumab/test), NF-kB reporter gene, CHO-PD-L1 [4] | Kd [5] | koff [5] | kon [5] | Kd [6] | koff [6] | kon [6] | other results
1 | B1 | 5.75 ng/mL | 219 | 16.1 ng/mL | 123 | 11.9 ng/mL | 154 | 154% | 123% | 219% | 12.2 ratio | 6.82 ratio | 18.1 ratio | 0.075 nM | 0.00017 s⁻¹ | 2.3e+06 M⁻¹ s⁻¹ | 0.88 nM | 0.00027 s⁻¹ | 310000 M⁻¹ s⁻¹ | Kd [7]: 1.3 nM; koff [7]: 0.00033 s⁻¹; kon [7]: 260000 M⁻¹ s⁻¹; Kd [8]: 410 nM; koff [8]: 0.027 s⁻¹; kon [8]: 65000 M⁻¹ s⁻¹
2 | B2 | 6 ng/mL | 242 | 6.97 ng/mL | 135 | 5.48 ng/mL | 208 | 208% | 135% | 242% | 19.7 ratio | 16 ratio | 14.4 ratio | ≤ 0.0035 nM | < 1e-05 s⁻¹ | 2.8e+06 M⁻¹ s⁻¹ | 3.5 nM | 0.00075 s⁻¹ | 210000 M⁻¹ s⁻¹ | binding result [8]: no binding (tested: 0.12-90 nM)
